This passage reports binding signal (fold vs IP alone), binding signal (fold (reference)) and Kd results from paper PMC8216288.

As a reminder, the Kd is the constant that tells how readily two partners part at equilibrium.

The subject of data set [1] is Sm core (heptameric ring SmB/D1/D2/D3/E/F/G) assembled from GFP-pICln immunoprecipitate, detected by Y12 supershift. Nature of the data set: EMSA with Y12 supershift. The note with it: S100 assembly: 50 ug extract, 2 ug tRNA, 5 mM ATP, 1 ul RNAsin in 20 ul PBS, 35 C, 45 min, native RNA gel, pH not stated, GFP-pICln IP with or without ATP and …. On the technique in general: In EMSA bound probe runs differently from free probe, usually more slowly.

Data set [2] deals with GST-pICln S193, 195, 197D (phospho-mimicking aspartate mutant) (human) (UniProt P54105). Nature of the data set: SPR; Biacore T200; GST-pICln immobilised by amine coupling on CM5 chip (400 RU), SmG as analyte; multi-cycle, 20°C, 10 μl/min; 300 mM NaCl, 50 mM Tris/HCl pH 7.5, 1 mM EDTA, 1 mM EGTA; steady-state fit; n = 3.
Chain of GST-pICln S193, 195, 197D (phospho-mimicking aspartate mutant) (human) (P54105 other isoform, or with tags, fused parts or gaps mutant): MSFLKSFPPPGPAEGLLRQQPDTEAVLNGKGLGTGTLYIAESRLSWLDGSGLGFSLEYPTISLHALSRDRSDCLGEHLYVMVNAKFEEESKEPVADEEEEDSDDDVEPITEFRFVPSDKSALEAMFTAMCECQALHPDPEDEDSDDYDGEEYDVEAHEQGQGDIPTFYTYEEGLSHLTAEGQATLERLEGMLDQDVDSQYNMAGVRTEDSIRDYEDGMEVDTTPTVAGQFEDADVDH

With U1 snRNA, the binding signal (fold vs IP alone) turned out to be 1.3 in data set [1] (+ATP + ULK2, stated as no effect); 2.6 in data set [1] (+ATP + active ULK1); 1.4 in data set [1] (+ATP). Moreover, the binding signal (fold (reference)) in data set [1] was 1.
The substance “SmG purified from E. coli (SPR analyte) (from UniProt P62308 1-76) (natural protein)” came in with a Kd in data set [2] of 84.7 µM. In other words, the double-digit micromolar range.
